# Laboratory results published in patent US20050070694A1 (Eli Lilly, published 2005).
# Tests used:
# [1] = target: T1, recombinant soluble human TNFSF13b (hTNFSF13b) (human, UniProt Q9Y275 134-285); assay: cell-based or functional assay
# [2] = target: Chimera D (human TNFSF13b L53V, K55R, E56Q) (human, UniProt Q9Y275 134-285); assay: cell-based or functional assay
# [3] = target: Chimera A (human TNFSF13b L139R, D140N) (human, UniProt Q9Y275 134-285); assay: cell-based or functional assay
# [4] = target: Chimera B (human TNFSF13b K71P, T72I, Y73F) (human, UniProt Q9Y275 134-285); assay: cell-based or functional assay
# Sequence of Chimera B (human TNFSF13b K71P, T72I, Y73F) (Q9Y275 134-285, stated change not applied): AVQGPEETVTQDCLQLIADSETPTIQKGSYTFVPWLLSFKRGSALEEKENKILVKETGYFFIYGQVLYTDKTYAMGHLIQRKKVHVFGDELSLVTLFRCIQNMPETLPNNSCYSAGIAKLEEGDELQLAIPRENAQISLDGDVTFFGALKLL
# [5] = target: Chimera E (human TNFSF13b E105K) (human, UniProt Q9Y275 134-285); assay: cell-based or functional assay
# Sequence of Chimera E (human TNFSF13b E105K) (Q9Y275 134-285, stated change not applied): as above
# [6] = target: T1, recombinant soluble human TNFSF13b …; assay: BIAcore 2000 SPR at 25 C; antibody captured by anti-human IgG Fc, hTNFSF13b as analyte from 50 nM in 2-fold dilutions; Langmuir 1:1 model
# [7] = target: T2, murine TNFSF13b (mouse, UniProt Q9WU72 127-309); assay: sandwich ELISA with 4A5-3.1.1-B4 as both capture and detecting mAb
# T2 construct: Used as supernatants of CHO cells or 293 transfectants expressing murine TNFSF13b, and as purified protein; also called Mouse TNFSF13b; mouse TNFSF13b parent molecule
# T2 sequence (Q9WU72 127-309 limits assumed): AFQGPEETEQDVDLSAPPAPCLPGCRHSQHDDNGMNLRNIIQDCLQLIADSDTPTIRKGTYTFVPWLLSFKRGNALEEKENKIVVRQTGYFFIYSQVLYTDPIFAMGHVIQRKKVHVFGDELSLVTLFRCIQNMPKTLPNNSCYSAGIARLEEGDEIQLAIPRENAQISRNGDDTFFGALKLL
# T1 sequence (Q9Y275 134-285): as the sequence (Q9Y275 134-285, stated change not applied) above
# Sequence of Chimera A (human TNFSF13b L139R, D140N) (Q9Y275 134-285, stated change not applied): as above
# Sequence of Chimera D (human TNFSF13b L53V, K55R, E56Q) (Q9Y275 134-285, stated change not applied): as above
binder,measurement,setting,value
"human antibody 4A5-3.1.1-B4 (antibody, V domains shown, Hybridoma-derived human monoclonal antibody from HuMAb mice, with a human kappa light chain; also called 4A5 mAb; 4A5-3.1.11-B4) VH: QVQLQQWGAGLLKPSETLSLTCAVYGGSFSGYYWSWIRQPPGKGLEWIGEINHSGSTNYNPSLKSRVTISVDTSKNQFSLKLSSVTAADTAVYYCARGYYDILTGYYYYFDYWGQGTLVTVSS VL: EIVLTQSPATLSLSPGERATLSCRASQSVSRYLAWYQQKPGQAPRLLIYDASNRATGIPARFSGSGSGTDSTLTISSLEPEDFAVYYCQQRSNWPRTFGQGTKVEIKR","neutralization of proliferation, 11 ng/ml purified TNFSF13b, 1 ug/ml of 4A5-3.1.1-B4",[1],100%
same,"neutralization of proliferation, 293 supernatants, 6 ug/ml of 4A5-3.1.1-B4",[1],100%
same,"neutralization of proliferation, 293 supernatants, 6 ug/ml of 4A5-3.1.1-B4",[2],100%
same,"neutralization of proliferation, 11 ng/ml purified TNFSF13b, 1 ug/ml of 4A5-3.1.1-B4",[3],100%
same,"neutralization of proliferation, 293 supernatants, 6 ug/ml of 4A5-3.1.1-B4",[3],100%
same,"neutralization of proliferation, 11 ng/ml purified TNFSF13b, 1 ug/ml of 4A5-3.1.1-B4",[4],88%
same,"neutralization of proliferation, 293 supernatants, 6 ug/ml of 4A5-3.1.1-B4",[4],100%
same,"neutralization of proliferation, 293 supernatants, 6 ug/ml of 4A5-3.1.1-B4",[5],100%
same,Kd,[6],0.038 nM
same,binding result,[7],no binding
